The source of these data is patent publication US20010016194A1 (published 2001).

Experiment [1] concerns the target T1, Raf-1 proteins present in human T-cell lysates (human, UniProt P04049 1-648).
T1 construct: Endogenous protein within a cell lysate, so other lysate proteins were present; also called T-cell derived Raf-1 proteins; cellular Raf-1 serine/threonine kinase
The experiment can be described thus: anti-FLAG bead pull-down from T-cell lysate, anti-Raf-1 immunoblot. A general note: Immunoblotting shows a protein as a band on a membrane.

Experiment [2] concerns the target T1, Raf-1 proteins present in human T-cell …. The experiment can be described thus: anti-FLAG affinity column pull-down from 35S-labelled human T-cell lysate, anti-SP-63 immunoblot.
The target of experiment [3] is T2, (His)6-Raf-1 protein (UniProt P04049 1-648, limits assumed).
T2 construct: Made in M15 bacteria and purified on Ni-NTA, or used as bacterial lysate; also called bacterially produced (His)6-Raf-1
The experiment can be described thus: totally cell-free pull-down on anti-FLAG beads, anti-Raf-1 immunoblot. The source says: Eluted proteins were separated on SDS-PAGE, transferred onto Immobilon membrane and blotted with anti-Raf-1 antibody.

B1: FLAG-HMK-IL-2Rβ chain containing only the proline rich C-terminal (CT+) (receptor)
chain: QPLSGEDDAYCTFPSRDDLLLFSPSLLGGPSPPSTAPGGSGAGEERMPPSLQERVPRDWDPQPLGPPTPGVPDLVDFQPPPELVLREAGEEVPDAGPREGVSFPWSRPPGQGEFRALNARLPLNTDAYLSLQELQGQDPTHLV
notes: How it was constructed is not described; also called FLAG-HMK-IL-2Rβ chain CT+ proteins; not shown: 17 amino acid FLAG-HMK tag
Consider B1, for which, in experiment [1], the binding result is “no binding”.

B2: FLAG-HMK-IL-2Rβ chain cytoplasmic domain wild type fusion protein (receptor, not shown: small tags and cut ends)
chain: NCRNTGPWLKKVLKCNTPDPSKFFSQLSSEHGGDVQKWLSSPFPSSSFSPGGLAPEISPLEVLERDKVTQLLLQQDKVPEPASLSSNHSLTSCFTNQGYFFFHLPDALEIEACQVYFTYDPYSEEDPDEGVAGAPTGSSPQPLQPLSGEDDAYCTFPSRDDLLLFSPSLLGGPSPPSTAPGGSGAGEERMPPSLQERVPRDWDPQPLGPPTPGVPDLVDFQPPPELVLREAGEEVPDAGPREGVSFPWSRPPGQGEFRALNARLPLNTDAYLSLQELQGQDPTHLV
notes: Made in BL-21 pLysS bacteria, about 33 kDa; also called FLAG-HMK-IL-2Rβ chain wild type (WT); FLAG-HMK-IL-2Rβ-WT
In the case of B2, the binding result in experiment [2] is “binds”.

B3: FLAG-HMK-IL-2Rβ chain mutant lacking both acidic domain and proline rich C-terminal (A-CT-) (receptor)
chain: NCRNTGPWLKKVLKCNTPDPSKFFSQLSSEHGGDVQKWLSSPFPSSSFSPGGLAPEISPLEVLERDKVTQLLL
notes: How it was constructed is not described; also called FLAG-HMK-IL-2Rβ S+; not shown: 17 amino acid FLAG-HMK tag
On to B3, for which the binding result in experiment [3] and in experiment [1] was “no binding” each time.
